Laboratory results: FireProtDB (doi:10.1002/pro.5560060808)

Details: Aspergillus oryzae (strain ATCC 42149 / RIB 40), Thermal, DSC, reversible: yes, whole UniProt chain shown
[1] = pH 4.5, Acetic acid-Sodium acetate 0.1 M

B1: Guanyl-specific ribonuclease T1 wild type, P00651 (protein)
chain: MMYSKLLTLTTLLLPTALALPSLVERACDYTCGSNCYSSSDVSTAQAAGYQLHEDGETVGSNSYPHKYNNYEGFDFSVSSPYYEWPILSSGDVYSGGSPGADRVVFNENNQLAGVITHTGASGNNFVECT
pH 3, glycine-HCl 0.1 M
  Tm: 52.4 °C
  heat capacity change of unfolding: 1.2 kcal/mol/K
  unfolding enthalpy (calorimetric): 99.3 kcal/mol
pH 3.5, glycine-HCl 0.1 M
  Tm: 54.7 °C
  heat capacity change of unfolding: 1.44 kcal/mol/K
  unfolding enthalpy (calorimetric): 103 kcal/mol
[1]
  Tm: 59.2 °C
  heat capacity change of unfolding: 1.17 kcal/mol/K
  unfolding enthalpy (calorimetric): 109 kcal/mol
pH 6, MES 0.1 M
  Tm: 62.4 °C
  heat capacity change of unfolding: 1.39 kcal/mol/K
  unfolding enthalpy (calorimetric): 112 kcal/mol
